From patent US20240301052A1 (LANOVA MEDICINES DEVELOPMENT, published 2024)
Where a chain is given by its changes, count along the chain named.

T1: human SLC34A2 (human, UniProt O95436 1-690)
T1 construct: whole, on cells; also called human solute carrier 34 A2; NaPi2b
T1 sequence (looked up): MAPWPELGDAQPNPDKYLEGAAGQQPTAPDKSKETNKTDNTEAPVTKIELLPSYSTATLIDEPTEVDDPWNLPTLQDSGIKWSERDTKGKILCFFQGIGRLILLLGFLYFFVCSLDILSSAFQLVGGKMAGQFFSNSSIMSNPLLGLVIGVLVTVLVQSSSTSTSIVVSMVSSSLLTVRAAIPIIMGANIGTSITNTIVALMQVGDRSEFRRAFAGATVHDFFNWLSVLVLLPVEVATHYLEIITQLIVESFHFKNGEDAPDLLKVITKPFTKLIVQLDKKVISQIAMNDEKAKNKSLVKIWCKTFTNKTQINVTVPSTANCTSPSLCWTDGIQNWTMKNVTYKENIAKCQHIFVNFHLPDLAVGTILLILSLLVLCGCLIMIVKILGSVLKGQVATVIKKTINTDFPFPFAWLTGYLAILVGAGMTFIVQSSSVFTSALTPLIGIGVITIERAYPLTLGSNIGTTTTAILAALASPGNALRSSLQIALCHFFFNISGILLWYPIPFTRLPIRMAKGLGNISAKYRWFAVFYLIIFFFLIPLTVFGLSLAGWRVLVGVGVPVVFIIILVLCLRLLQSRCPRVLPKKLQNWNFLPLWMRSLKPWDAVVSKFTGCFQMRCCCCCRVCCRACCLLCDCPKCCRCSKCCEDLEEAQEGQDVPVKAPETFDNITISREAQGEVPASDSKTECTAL

T2: Rhesus SLC34A2 (Rhesus, UniProt F7HDA3 1-690)
T2 construct: whole, on cells
T2 sequence: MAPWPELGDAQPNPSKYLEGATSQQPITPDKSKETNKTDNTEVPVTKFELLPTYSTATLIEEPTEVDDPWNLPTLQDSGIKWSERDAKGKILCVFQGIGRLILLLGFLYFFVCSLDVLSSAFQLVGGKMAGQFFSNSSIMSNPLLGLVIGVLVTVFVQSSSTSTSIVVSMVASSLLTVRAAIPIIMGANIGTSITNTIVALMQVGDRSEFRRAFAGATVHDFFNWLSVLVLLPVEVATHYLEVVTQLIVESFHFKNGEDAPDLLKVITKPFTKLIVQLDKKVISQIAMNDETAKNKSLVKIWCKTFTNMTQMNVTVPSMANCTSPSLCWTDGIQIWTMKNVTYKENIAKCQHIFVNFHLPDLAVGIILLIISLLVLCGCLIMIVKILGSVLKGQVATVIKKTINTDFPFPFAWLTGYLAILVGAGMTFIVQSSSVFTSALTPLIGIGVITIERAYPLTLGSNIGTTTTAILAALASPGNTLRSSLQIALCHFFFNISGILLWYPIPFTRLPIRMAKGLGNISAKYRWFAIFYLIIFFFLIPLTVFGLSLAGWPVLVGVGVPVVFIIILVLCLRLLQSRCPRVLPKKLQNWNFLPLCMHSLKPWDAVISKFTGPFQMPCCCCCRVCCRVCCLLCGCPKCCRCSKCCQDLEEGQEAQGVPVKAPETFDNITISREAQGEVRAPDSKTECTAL

B1: 63A11D5B4.p1.z5 hIgG1 (antibody, V domains shown)
VH: QVQLVQSGAEVKKPGASVKVSCKTSGYTFITYNMHWVRQAPGQGLEWIGAIYPGSGDTSYNQKFKGRVTMTADTSTSTVYMELSSLRSEDTAVYYCSISTIITTGAVDYWGQGTLVTVSS
VL: DIQMTQSPSSLSASVGDRVTITCKASQDVGTAVAWYQQKPGKVPKLLIYWTSTRHTGVPSRFSGSGSGTDFTLTISSLQPEDVATYYCQQYSRIPLTFGGGTKVEIK
notes: humanized hIgG1
B2: 91C9F1.p1.z6 hIgG1 (antibody, V domains shown)
VH: QVQLVQSGAEVKKPGSSVKVSCKTSGFFFTEYIIHWVRQAPGQGLEWIGGIIPNNDVTNYKQNFRGRVTLTADKSTSTAYMELSSLRSEDTAVYYCARWRNAYYSAMDSWGQGTTVTVSS
VL: B1 VL with A13T, K24T, V43S, T51A, S60E, Y87F, S92R, R93T, I94S
notes: humanized hIgG1
B3: 91C9F1.p1.z10 hIgG1 (antibody, V domains shown)
VH: B2 VH with K12V, A40S, V68A
VL: B1 VL with A13T, K24T, V43S, T51A, S60E, Y87F, S92R, R93T, I94S
notes: humanized hIgG1
B4: 63A11D5B4.p1.z15 hIgG1 (antibody, V domains shown)
VH: B1 VH with V5Q, K12V, V20M, R38K, L45R, V68A, M70L, T74K, V79A, L115S
VL: B1 VL with A13T, K42Q, V43S, S60D, T74I, S76R, Y87F
notes: humanized hIgG1
B5: 91C9F1.p1.z4 hIgG1 (antibody, V domains shown)
VH: B2 VH with T24A, I48M, L70I, K74E
VL: DIVVTQSPSSLSTSVGDRVTITCTASQDVGTAVAWYQQKPGKSPKLLIYWASTRHTGVPERFTGSGSGTDFTLTISSVQPEDVATYFCQQYRTSPLTFGVGTKLELK
notes: humanized hIgG1
B6: 30H9B8F9.p1.z13 hIgG1 (antibody, V domains shown)
VH: QVQLVQSGAEVVKPGASVKMSCKTSGYTFTTNNMHWVKQAPGQGLEWIGAIYPGSGATAYNQKFKGRATLTADKSTSTAYMELSSLRSEATAVYYCARGMYGHGAMDYWGQGTSVTVSS
VL: DIQLTQSPSFLSASVGDRVTITCKASQDVGTAVAWYQQKPGKAPKLLIYWATTRHSGVPSRFSGSGSGTEFTLTISSLQPEDFATYYCQQYSSNPLTFGQGTKLEIK
notes: humanized hIgG1
B7: 30H9B8F9.p1.z6 hIgG1 (antibody, V domains shown)
VH: B6 VH with V12K, M20V, K38R, A68V, L70M, K74T, A79V, A90D, S114L
VL: B6 VL with A43S, S60D, L73F, Y87F
notes: humanized hIgG1
B8: 30H9B8F9.p1.z9 hIgG1 (antibody, V domains shown)
VH: B6 VH with M20V, K38R, A68V, S114L
VL: B6 VL
notes: humanized hIgG1
B9: 91C9F1.p1.z14 hIgG1 (antibody, V domains shown)
VH: QVQLVQSGAEVVKPGSSVKISCKTSGFFFTEYIIHWVKQSPGQGLEWIGGIIPNNDVTNYKQNFRGRATLTADKSTNTAYMELRSSLRSEDTAVYYCARWRNAYYSAMDSWGQGTTVTVSS
VL: B5 VL with V3Q, V4M, T63S, V78L, V100G, L104V, L106I
notes: humanized hIgG1
B10: 91C9F1.p1.z11 hIgG1 (antibody, V domains shown)
VH: B2 VH with K12V, A40S, V68A
VL: B5 VL with V3Q, L104V, L106I
notes: humanized hIgG1
B11: 91C9F1.p1.z12 hIgG1 (antibody, V domains shown)
VH: B2 VH with K12V, A40S, V68A
VL: B5 VL
notes: humanized hIgG1

The binders below were run against T1, human SLC34A2 (assay: FACS, OVCAR3 cells).
Description: (§1) In another testing, cell based binding of hu Abs on human SLC34A2 expressing cells were assessed using flow cytometry. Briefly, the HEK293/H_SLC34A2, OVCAR3 and RMG-1 cells were incubated with hu Abs. After incubation at 4° C. for 60 minutes, the cells were washed with FACS buffer twice, then stained with fluorescent conjugated secondary antibody at 4° C. for 30 minutes. After that the cells were washed twice and analyzed by flow cytometry.
B1 was tested, and the EC50 was 13.5 nM. With B2 the EC50 was 2.86 nM and the Top was 20300 MFI. In the case of B3, the EC50 is reported as 3.96 nM and the Top is reported as 22300 MFI. With B4 the EC50 was 9.23 nM. B5 gave an EC50 of 2.71 nM and a Top of 20200 MFI. For B6, the EC50 was 0.62 nM. B7 showed an EC50 of 1.1 nM. In the case of B8, the EC50 is reported as 1.08 nM.

Each binder was assayed against T1, human SLC34A2 (assay: cell-based or functional assay).
In the case of B1, the “ADCC reporter EC50” value is reported as 0.95 nM and the “ADCC reporter Top (MFI)” value is reported as 116000 MFI. In the case of B2, the “ADCC reporter EC50” value is reported as 1.77 nM and the “ADCC reporter Top (MFI)” value is reported as 125000 MFI. B3 was tested, and the “ADCC reporter EC50” value was 2.37 nM and the “ADCC reporter Top (MFI)” value was 138000 MFI. B4 was tested, and the “ADCC reporter EC50” value was 1.47 nM and the “ADCC reporter Top (MFI)” value was 122000 MFI. With B5 the “ADCC reporter EC50” value was 3.14 nM and the “ADCC reporter Top (MFI)” value was 137000 MFI. In the case of B6, the “ADCC reporter EC50” value is reported as 0.96 nM and the “ADCC reporter Top (MFI)” value is reported as 143000 MFI. For B7, the “ADCC reporter EC50” value was 1.25 nM and the “ADCC reporter Top (MFI)” value was 135000 MFI. In the case of B8, the “ADCC reporter EC50” value is reported as 1.53 nM and the “ADCC reporter Top (MFI)” value is reported as 145000 MFI.

Molecular target: T1, human SLC34A2
Assay: FACS, OVCAR3 cells
Remark: another data set of the same source
Description: The binding of these humanized antibodies to OVCAR3 cells was evaluated as described above, and the results are shown in FIG. 12A-D and Tables 16A-D.
In the case of B6, the EC50 is reported as 1.03 nM and the “Top (MFI)” value is reported as 28400 MFI. In the case of B7, the EC50 is reported as 1.62 nM and the “Top (MFI)” value is reported as 28400 MFI. With B8 the EC50 was 1.59 nM and the “Top (MFI)” value was 29400 MFI.

Molecular target: T1, human SLC34A2
Assay: FACS, OVCAR3 cells
Remark: another data set of the same source
With B1 the EC50 was 13.5 nM and the “Top (MFI)” value was 28200 MFI. With B4 the EC50 was 9.23 nM and the “Top (MFI)” value was 30200 MFI.

These binders were tested against T1, human SLC34A2 (assay: FACS, RMG-1 cells).
Description: as §1
With B1 the EC50 was 36.2 nM and the Top was 11800 MFI. Binder B2 has an EC50 of 3.03 nM and a Top of 9560 MFI. Work on B3 yielded an EC50 of 3.91 nM and a Top of 9590 MFI. With B4 the EC50 was 40.6 nM and the Top was 13200 MFI. For B5, the EC50 was 3.22 nM and the Top was 9820 MFI. B6 showed an EC50 of 0.73 nM and a Top of 10900 MFI. Work on B7 yielded an EC50 of 1.78 nM and a Top of 10400 MFI. B8 was tested, and the EC50 was 1.4 nM and the Top was 11600 MFI.

The binders below were run against T2, Rhesus SLC34A2 (assay: FACS, HEK293/Rhesus SLC34A2 cells).
In the case of B1, the EC50 is reported as 3.9 nM and the “Top (MFI)” value is reported as 11100 MFI. With B2 the EC50 was 8.8 nM and the “Top (MFI)” value was 8160 MFI. B3 was tested, and the EC50 was 4.2 nM and the “Top (MFI)” value was 9230 MFI. For B4, the EC50 was 4.7 nM and the “Top (MFI)” value was 10300 MFI. With B5 the EC50 was 3.2 nM and the “Top (MFI)” value was 6720 MFI. In the case of B6, the EC50 is reported as 0.8 nM and the “Top (MFI)” value is reported as 15600 MFI. For B7, the EC50 was 1.1 nM and the “Top (MFI)” value was 15100 MFI. For B8, the EC50 was 0.9 nM and the “Top (MFI)” value was 16300 MFI.

Molecular target: T1, human SLC34A2
Assay: FACS, OVCAR3 cells
Remark: another data set of the same source
B2 was tested, and the EC50 was 1.72 nM and the “Top (MFI)” value was 36100 MFI. B9 was tested, and the EC50 was 3.87 nM and the “Top (MFI)” value was 36200 MFI. With B10 the EC50 was 1.41 nM and the “Top (MFI)” value was 31000 MFI. B3 was tested, and the EC50 was 2.32 nM and the “Top (MFI)” value was 38100 MFI. For B5, the EC50 was 1.12 nM and the “Top (MFI)” value was 34600 MFI. B11 was tested, and the EC50 was 1.77 nM and the “Top (MFI)” value was 34500 MFI.

What follows are binders tested against T1, human SLC34A2 (assay: FACS, HEK293/human SLC34A2 cells).
Description: as §1
With B1 the EC50 was 4.8 nM and the Top was 35900 MFI. Work on B2 yielded an EC50 of 1.72 nM and a Top of 36100 MFI. For B3, the EC50 was 2.32 nM and the Top was 38100 MFI. For B4, the EC50 was 7.12 nM and the Top was 37000 MFI. With B5 the EC50 was 1.12 nM and the Top was 34600 MFI. Binder B6 has an EC50 of 1.05 nM and a Top of 33000 MFI. Binder B7 has an EC50 of 1.94 nM and a Top of 33600 MFI. B8 showed an EC50 of 1.81 nM and a Top of 34200 MFI.
